Measured values: US20260098102A1 (NATIONAL UNIVERSITY CORPORATION KOBE UNIVERSITY, published 2026)

Biological target: T1, human SIRPA_V2 protein (human, UniProt P78324 31-504)
T1 construct: Expressed on 293α cells from pcDNA3.2 V5-DEST or pFLAG V5-DEST (FLAG-tagged) vectors; also called human SIRPA Variant 2; ECD variant (full-length, amino acids 1 to 504)
Experiment: cell-based ELISA on 293α cells expressing FLAG-tagged SIRPA_V2; Abs 490 normalized to FLAG tag
Protocol: The 293α cells [described in Example 1)-6] were prepared in a 10% FBS-containing DMEM medium to 5×10⁵ cells/mL. pFLAG V5-DEST-SIRPA_V1, pFLAG V5-DEST-SIRPA_V2, or pFLAG V5-DEST was introduced into the cells using Lipofectamine LTX (Invitrogen), followed by addition of 100 μL per well to a 96-well plate (Corning Incorporated), and cells were cultured overnight in the 10% FBS-containing DMEM medium at 37° C. under a 5% CO₂ condition. The obtained introduced cells were used for cell-based ELISA in a state that they adhered to each other. After the culture supernatant was removed, 50 μL per well of the cD13 (IgG2 and IgG4pf), cF44 (IgG1, IgG2, IgG4p, and IgG4pf), and cF63 (IgG2 and IgG4pf) antibodies prepared in Examples 3 and 4 were added to each of pFLAG V5-DEST-SIRPA_V1, pFLAG V5-DEST-SIRPA_V2, or pFLAG V5-DEST-introduced cells at final concentrations of 0 to 10,000 ng/mL, and the mixture was allowed to stand at 4° C. for one hour. Further, 50 μL per well of anti-FLAG M2 antibody (SIGMA) diluted with 5% FBS-containing PBS to a final concentration of 10,000 ng/mL was added to a well for detecting expression of each SIRPA construct, and the mixture was allowed to stand at 4° C. for one hour. The cells in the well were washed once with 5% FBS-containing PBS, followed by addition of Peroxidase AffiniPure F(ab′)₂ Fragment Goat Anti-Human IgG, Fcγ Fragment Specific (Jackson ImmunoResearch) diluted 1000-fold with 5% FBS-containing PBS, and the mixture was allowed to stand at 4° C. for one hour. The cells in the well were washed five times with 5% FBS-containing PBS, followed by addition of 100 μL per well of an OPD coloration solution [o-phenylenediamine dihydrochloride (Wako Pure Chemical Industries, Ltd.) and H₂O₂ were dissolved in an OPD solution (0.05 M trisodium citrate, 0.1 M disodium hydrogen phosphate dodecahydrate, pH 4.5) at 0.4 mg/mL and 0.6% (v/v), respectively]. A coloration reaction was performed with stirring occasionally, 100 μL per well of 1 M HCl was added to terminate the coloration reaction, and then absorbance at 490 nm was measured with a plate reader ARVO (PerkinElmer Inc.). Binding of the human chimeric anti-human SIRPA antibodies to each construct was standardized by expression of the FLAG tag.

T1 sequence (P78324 other isoform, or with tags, fused parts or gaps limits assumed): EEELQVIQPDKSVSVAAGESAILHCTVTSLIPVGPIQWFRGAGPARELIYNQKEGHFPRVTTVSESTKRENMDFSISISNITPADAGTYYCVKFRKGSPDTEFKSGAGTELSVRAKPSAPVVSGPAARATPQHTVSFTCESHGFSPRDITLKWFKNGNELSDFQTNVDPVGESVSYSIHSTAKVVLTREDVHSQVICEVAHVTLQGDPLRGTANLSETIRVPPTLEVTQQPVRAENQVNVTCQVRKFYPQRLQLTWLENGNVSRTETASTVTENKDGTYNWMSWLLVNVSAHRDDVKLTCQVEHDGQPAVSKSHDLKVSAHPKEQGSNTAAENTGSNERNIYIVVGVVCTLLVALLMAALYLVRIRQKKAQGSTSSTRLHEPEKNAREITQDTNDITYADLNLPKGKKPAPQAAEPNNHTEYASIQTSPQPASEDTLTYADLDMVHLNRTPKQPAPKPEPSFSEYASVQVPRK

B1: human chimeric anti-SIRPA antibody cD13 (antibody, human IgG4 S228P, kappa, F234A L235A, V domains shown)
VH: EVQLVESGGGLVQPGRSLKLSCLASGFTFSDYGMIWVRQAPGKGLEWVASISSSSSYIYYADTVKGRFTISRENAKNTLFLHMTSLRSEDTALYYCARRYYGFNYPFDYWGQGVMVTVSS
VL: DTVLTQSPALAVSLGQRVTISCGASKSVRTYMHWYQQKSGQQPKLLIYSASNLEAGVPSRFSGSGSGTDFTLTIDPVEADDIANYYCQQSNEPPYTFGAGTKLELKR
notes: Human IgG4proFALA heavy chain, human kappa light chain; also called cD13 (IgG4pf); human chimeric antibody D13
**Q.** How did the “EC50 (read off the curve)” value turn out when B1 was run?
**A.** ~0.05 µg/mL
